Columns and labels:
[1] = target: MrgC11-GFP (mouse) [GFP: P42212]; experiment: cell-based or functional assay
[2] = target: MrgA1-GFP (mouse) (UniProt Q91WW5); experiment: cell-based or functional assay

EC50 of calcium mobilization (FLEXstation assay) [1] | EC50 of calcium mobilization (FLEXstation assay) [2] | Substance | also measured
 |  | (D)F-M-R-Fa (peptide) | EC50 of calcium mobilization (HEK-MrgC11 cells) [1]: 108 nM; EC50 of calcium mobilization (HEK-MrgA1 cells) [2]: 882 nM
130 nM |  | AF-2 (peptide) | 
16 nM |  | AnthoRF-amide (peptide) | 
300 nM | > 10000 nM | BAM3200 (peptide) | 
53 nM | 23300 nM | BAM-15 (peptide) | 
479 nM | 8770 nM | BAM-15-amide (peptide) | fold change of agonist activity against BAM-15 [1]: 9 fold; fold change of agonist activity against BAM-15 [2]: 2.7 fold
26 nM | 2540 nM | BAM-22P (peptide) | 
22 nM |  | Dynnorphin-14 (peptide) | 
 |  | F-(D)M-R-Fa (peptide) | EC50 of calcium mobilization (HEK-MrgC11 cells) [1]: 11 nM; fold change of agonist activity against FMRFa [1]: 10 fold; EC50 of calcium mobilization (HEK-MrgA1 cells) [2]: 1260 nM; fold decrease in fold change of agonist activity against FMRFa [2]: 3 fold
 |  | F-M-R-(D)Fa (peptide) | EC50 of calcium mobilization (HEK-MrgA1 cells) [2]: 643 nM
157 nM | 402 nM | FLRF-amide (peptide) | internalization of the receptor-GFP fusion (confocal microscopy, 3 µM FLRFa, 30 min, 37° C.) [2]: > 90 % of cells
544 nM | 8200 nM | FMRF-OH (peptide) | fold change of agonist activity against the amidated peptide [1]: 4 to 5 fold; fold decrease in fold change of agonist activity against FMRFa [2]: 20 fold
114 nM | 420 nM | FMRF-amide (peptide) | EC50 of calcium mobilization (HEK-MrgC11 cells) [1]: 114 nM; EC50 of calcium mobilization (HEK-MrgA1 cells) [2]: 420 nM
102 nM |  | Kiss(107-121) (peptide) | 
50 nM |  | Kiss(112-121) (peptide) | 
133 nM | 5250 nM | Met-ENK-RFamide (peptide) | 
545 nM |  | Met-Enk-RF (peptide) | fold change of agonist activity against the amidated peptide [1]: 4 to 5 fold
282 nM |  | NPAF (peptide) | 
54 nM | 2140 nM | NPFF (peptide) | 
126 nM | > 10000 nM | PQRF-amide (peptide) | 
144 nM |  | PrRP-20 (peptide) | 
 |  | R-F-OH (peptide) | EC50 of calcium mobilization (HEK-MrgC11 cells) [1]: 632 nM
 |  | R-Fa (peptide) | EC50 of calcium mobilization (HEK-MrgC11 cells) [1]: 460 nM
1240 nM |  | RFRP-1 (peptide) | 
113 nM |  | RFRP-3 (peptide) | 
17 nM |  | γ1-MSH (peptide) | 
11 nM |  | γ2-MSH (peptide) | internalization of the receptor-GFP fusion (confocal microscopy, 1 µM γ2-MSH, 30 min, 37° C.) [1]: > 90 % of cells

From patent publication US20040121410A1, “Pain signaling molecules” (priority 2002, published 2004)
